Data reported in patent US20170226167A1.
Where no end group is shown, it is not given here. [ ]: non-standard residue; d: D form. Met(O) = CS(=O)CC[C@H](N)C(=O)O; pS = N[C@@H](COP(=O)(O)O)C(=O)O

How the values were obtained:
[1] = molecular target: Recombinant bovine HSC70 (Stressgen) (bovine) (UniProt P19120); experiment: SPR (BIAcore 3000), bovine HSC70 immobilized, peptide as analyte, 1:1 Langmuir fit, 25 C
[2] = molecular target: Recombinant bovine HSC70 (Stressgen) (bovine) (UniProt P19120); experiment: SPR (BIAcore 3000), bovine HSC70 immobilized, peptide at 6.25 µM, 1:1 Langmuir fit
[3] = molecular target: Recombinant bovine HSC70 (Stressgen) (bovine) (UniProt P19120); experiment: SPR (BIAcore 3000), bovine HSC70 immobilized, peptide at 3.12 µM, 1:1 Langmuir fit
[4] = molecular target: Recombinant bovine HSC70 (Stressgen) (bovine) (UniProt P19120); experiment: SPR (BIAcore 3000), bovine HSC70 immobilized, peptide at 12.5 µM, 1:1 Langmuir fit
[5] = molecular target: Recombinant bovine HSC70 (Stressgen) (bovine) (UniProt P19120); experiment: SPR (BIAcore 3000), bovine HSC70 immobilized, peptide at 25 µM, 1:1 Langmuir fit
[6] = molecular target: Recombinant bovine HSC70 (Stressgen) (bovine) (UniProt P19120); experiment: SPR (BIAcore 3000), bovine HSC70 immobilized, peptide at 1.56 µM, 1:1 Langmuir fit

Chain of Recombinant bovine HSC70 (Stressgen) (bovine) (P19120 whole entry): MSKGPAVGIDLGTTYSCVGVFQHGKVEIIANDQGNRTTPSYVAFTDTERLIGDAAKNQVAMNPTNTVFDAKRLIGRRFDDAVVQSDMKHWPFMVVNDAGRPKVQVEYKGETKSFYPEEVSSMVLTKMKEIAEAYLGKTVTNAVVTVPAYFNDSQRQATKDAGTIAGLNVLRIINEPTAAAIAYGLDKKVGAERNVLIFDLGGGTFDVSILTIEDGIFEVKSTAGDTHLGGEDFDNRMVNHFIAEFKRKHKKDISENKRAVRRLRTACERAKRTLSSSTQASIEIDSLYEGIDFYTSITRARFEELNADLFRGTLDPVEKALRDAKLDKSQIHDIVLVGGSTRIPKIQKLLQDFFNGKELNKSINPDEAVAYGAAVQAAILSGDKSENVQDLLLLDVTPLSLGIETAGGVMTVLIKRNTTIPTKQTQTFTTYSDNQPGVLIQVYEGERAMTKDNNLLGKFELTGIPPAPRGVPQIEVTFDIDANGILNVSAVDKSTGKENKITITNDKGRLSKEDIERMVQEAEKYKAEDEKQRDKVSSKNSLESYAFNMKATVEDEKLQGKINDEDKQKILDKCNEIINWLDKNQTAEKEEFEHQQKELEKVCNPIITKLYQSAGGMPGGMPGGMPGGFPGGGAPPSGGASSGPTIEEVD

Row | Binder | kon [1] | Ka [2] | Kd [2] | Req (RU) [2] | kobs [2] | koff [2] | Ka [3] | Kd [3] | Req (RU) [3] | kobs [3] | koff [3] | Ka [4] | Kd [4] | Req (RU) [4] | kobs [4] | koff [4] | Ka [5] | Kd [5] | Req (RU) [5] | kobs [5] | also measured
1 | RIH[Met(O)]VYSKR[pS]GKPRGYAFIEY | 1150 M⁻¹ s⁻¹ | 524000 M⁻¹ | 1.91 µM | 29.9 RU | 0.0094 s⁻¹ | 0.0022 s⁻¹ | 524000 M⁻¹ | 1.91 µM | 24.2 RU | 0.0058 s⁻¹ | 0.0022 s⁻¹ | 524000 M⁻¹ | 1.91 µM | 33.9 RU | 0.0166 s⁻¹ | 0.0022 s⁻¹ | 524000 M⁻¹ | 1.91 µM | 36.3 RU | 0.031 s⁻¹ | koff [5]: 0.0022 s⁻¹; Ka [6]: 524000 M⁻¹; Kd [6]: 1.91 µM; Req (RU) [6]: 17.6 RU; kobs [6]: 0.004 s⁻¹; koff [6]: 0.0022 s⁻¹
2 | RIHMVYSKR[pS]GKPRGYAFIEY [P140 peptide (peptide consisting of SEQ ID NO: 1, in which serine at position 10 is phosphorylated)] | 450 M⁻¹ s⁻¹ | 144000 M⁻¹ | 6.94 µM | 39.5 RU | 0.00593 s⁻¹ | 0.00312 s⁻¹ | 144000 M⁻¹ | 6.94 µM | 25.8 RU | 0.00452 s⁻¹ | 0.00312 s⁻¹ | 144000 M⁻¹ | 6.94 µM | 53.6 RU | 0.00874 s⁻¹ | 0.00312 s⁻¹ | 144000 M⁻¹ | 6.94 µM | 65.2 RU | 0.0144 s⁻¹ | koff [5]: 0.00312 s⁻¹; Ka [6]: 144000 M⁻¹; Kd [6]: 6.94 µM; Req (RU) [6]: 15.3 RU; kobs [6]: 0.00382 s⁻¹; koff [6]: 0.00312 s⁻¹
